Assay results: patent CN106916225A (UNIV JINAN, dated 2017)

Legend:
[1] = target: T1, 人N端脑钠肽前体 (N-terminal pro-brain natriuretic peptide, NT-proBNP) (human, UniProt P16860 27-102); test: indirect ELISA, NT-proBNP coated at 400 ng/ml, serially diluted purified ascites antibody
T1 construct: domain: N端脑钠肽前体 (NT-proBNP), 76个氨基酸残基; Bought recombinant protein; also called hNT-proBNP; 人N末端B型脑钠肽前体
T1 sequence (looked up): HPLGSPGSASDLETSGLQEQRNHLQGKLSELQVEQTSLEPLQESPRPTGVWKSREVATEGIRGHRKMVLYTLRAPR

[2] = target: T1, 人N端脑钠肽前体 (N-terminal pro-brain …); test: non-competitive enzyme immunoassay (ELISA), NT-proBNP coated at 400, 100, 25 ng/mL, Ka=(n-1)/2(n[Ab']t-[Ab]t)

Row | Binder | 效价 (antibody dilution at OD450 about 1.0) [1] | Ka [2]
1 | 单克隆抗体Ab1 (抗人N端脑钠肽前体单克隆抗体, 杂交瘤细胞株3A2分泌) (antibody) chain 1: VKLQESGPELVKPGASQKISCKTSGYTFTVYTLHWVKQSHGKSLEWIGAINPKTGSIRNNQKFRDKAILTIDRSSNTAYMDLRSLTSDDSAVYFCARNGGHDVYFFDYWGQGTTVTVSS chain 2: DIVLTQSPASLAVSLGQRATISYRASKSVSTSGYSYMHWNQQKPGQPPRLLIYLVSNLESGVPARFSGSGSGTDFTLNIHPVEEEDAATYYCQHIR | > 1e+06 dilution fold (1:x) | 1e+10 M⁻¹
2 | 单克隆抗体Ab3 (抗人N端脑钠肽前体单克隆抗体) (antibody, V domains shown) VH: QVQLQQPGAELVKPGASVKMSCQASGFTFTNYIIHWVKQTPGQGLEWIGAIYPGNGDTSYNQKFRGKATLTADKSSNTAYMQLSSLTSEDSAVYYCAGEDNYGNSYWYFDVWGAGTTVTVSS VL: DIVMTQTPLSLPVSLGDQASISCRSSQSIVHSTGNTYLEWYLQKPGQSPKLLIYKVSNRLSGVPDRFSGSGSGTDFTLKISRVEAEDLGVYYCFQGSQVSLTFGAGTKLELKR | > 1e+06 dilution fold (1:x) | –
